{"source": "patent US20190360025A1", "key": {"[1]": {"target": "tumor necrosis factor alpha (TNF-α), R&D Systems 210-TA-005 (UniProt P01375)", "sequence (P01375 77-233 limits assumed)": "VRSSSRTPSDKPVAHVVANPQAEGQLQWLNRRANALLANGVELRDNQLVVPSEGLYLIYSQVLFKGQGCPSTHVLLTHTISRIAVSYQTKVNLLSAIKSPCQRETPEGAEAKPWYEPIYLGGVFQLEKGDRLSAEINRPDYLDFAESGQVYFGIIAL", "assay": "c-PLA, buffer; TNF-α 5.00E-07 M"}, "[2]": {"target": "tumor necrosis factor alpha (TNF-α), R&D Systems 210-TA-005 (UniProt P01375)", "assay": "c-PLA 1X probes, buffer; TNF-α 1.00E-11 M"}, "[3]": {"target": "tumor necrosis factor alpha (TNF-α), R&D Systems 210-TA-005 (UniProt P01375)", "assay": "t-PLA 10X probes, human plasma; TNF-α 1.00E-08 M"}, "[4]": {"target": "tumor necrosis factor alpha (TNF-α), R&D Systems 210-TA-005 (UniProt P01375)", "assay": "t-PLA, buffer; TNF-α 1.00E-10 M"}, "[5]": {"target": "tumor necrosis factor alpha (TNF-α), R&D Systems 210-TA-005 (UniProt P01375)", "assay": "t-PLA 10X probes, buffer; TNF-α 1.00E-09 M"}, "[6]": {"target": "tumor necrosis factor alpha (TNF-α), R&D Systems 210-TA-005 (UniProt P01375)", "assay": "c-PLA, buffer; TNF-α 1.00E-08 M"}, "[7]": {"target": "tumor necrosis factor alpha (TNF-α), R&D Systems 210-TA-005 (UniProt P01375)", "assay": "t-PLA 10X probes, human plasma; TNF-α 5.00E-07 M"}, "[8]": {"target": "tumor necrosis factor alpha (TNF-α), R&D Systems 210-TA-005 (UniProt P01375)", "assay": "t-PLA 1X probes, human plasma; TNF-α 1.00E-09 M"}, "[9]": {"target": "tumor necrosis factor alpha (TNF-α), R&D Systems 210-TA-005 (UniProt P01375)", "assay": "c-PLA 10X probes, human plasma; TNF-α 1.00E-11 M"}, "[10]": {"target": "tumor necrosis factor alpha (TNF-α), R&D Systems 210-TA-005 (UniProt P01375)", "assay": "t-PLA 1X probes, buffer; TNF-α 5.00E-07 M"}, "[11]": {"target": "tumor necrosis factor alpha (TNF-α), R&D Systems 210-TA-005 (UniProt P01375)", "assay": "t-PLA 10X probes, human plasma; TNF-α 1.00E-09 M"}, "[12]": {"target": "tumor necrosis factor alpha (TNF-α), R&D Systems 210-TA-005 (UniProt P01375)", "assay": "BLI (Octet RED), antibody on protein G sensors, 1:1 global fit"}, "[13]": {"target": "tumor necrosis factor alpha (TNF-α), R&D Systems 210-TA-005 (UniProt P01375)", "assay": "c-PLA, buffer; TNF-α 1.00E-09 M"}, "[14]": {"target": "vascular endothelial growth factor (VEGF), R&D Systems 293-VE-010 (human) (UniProt P15692)", "sequence (P15692 other isoform, or with tags, fused parts or gaps limits assumed)": "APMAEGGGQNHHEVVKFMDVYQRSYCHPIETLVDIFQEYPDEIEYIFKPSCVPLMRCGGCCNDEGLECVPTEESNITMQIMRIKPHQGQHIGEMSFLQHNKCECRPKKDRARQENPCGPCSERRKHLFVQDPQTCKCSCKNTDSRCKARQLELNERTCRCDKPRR", "assay": "c-PLA with preamplification; VEGF 1.00E-08 M"}, "[15]": {"target": "vascular endothelial growth factor (VEGF), R&D Systems 293-VE-010 (human) (UniProt P15692)", "assay": "c-PLA, buffer; VEGF 1.00E-13 M"}, "[16]": {"target": "vascular endothelial growth factor (VEGF), R&D Systems 293-VE-010 (human) (UniProt P15692)", "assay": "t-PLA, chicken plasma; VEGF 1.00E-14 M"}, "[17]": {"target": "vascular endothelial growth factor (VEGF), R&D Systems 293-VE-010 (human) (UniProt P15692)", "assay": "c-PLA, chicken plasma; VEGF 1.00E-13 M"}, "[18]": {"target": "vascular endothelial growth factor (VEGF), R&D Systems 293-VE-010 (human) (UniProt P15692)", "assay": "t-PLA, buffer; VEGF 1.00E-13 M"}, "[19]": {"target": "vascular endothelial growth factor (VEGF), R&D Systems 293-VE-010 (human) (UniProt P15692)", "assay": "SPR, isoaffinity graph"}, "[20]": {"target": "vascular endothelial growth factor (VEGF), R&D Systems 293-VE-010 (human) (UniProt P15692)", "assay": "t-PLA, buffer; VEGF 1.00E-12 M"}, "[21]": {"target": "vascular endothelial growth factor (VEGF), R&D Systems 293-VE-010 (human) (UniProt P15692)", "assay": "c-PLA with preamplification; VEGF 1.00E-10 M"}, "[22]": {"target": "vascular endothelial growth factor (VEGF), R&D Systems 293-VE-010 (human) (UniProt P15692)", "assay": "c-PLA with preamplification; VEGF 1.00E-14 M"}, "[23]": {"target": "vascular endothelial growth factor (VEGF), R&D Systems 293-VE-010 (human) (UniProt P15692)", "assay": "c-PLA, chicken plasma; VEGF 1.00E-12 M"}, "[24]": {"target": "vascular endothelial growth factor (VEGF), R&D Systems 293-VE-010 (human) (UniProt P15692)", "assay": "c-PLA, human plasma; VEGF 1.00E-13 M"}, "[25]": {"target": "vascular endothelial growth factor (VEGF), R&D Systems 293-VE-010 (human) (UniProt P15692)", "assay": "t-PLA with preamplification; VEGF 1.00E-14 M"}, "[26]": {"target": "vascular endothelial growth factor (VEGF), R&D Systems 293-VE-010 (human) (UniProt P15692)", "assay": "c-PLA, human plasma; VEGF 1.00E-10 M"}, "[27]": {"target": "vascular endothelial growth factor (VEGF), R&D Systems 293-VE-010 (human) (UniProt P15692)", "assay": "c-PLA with preamplification; VEGF 1.00E-13 M"}, "[28]": {"target": "vascular endothelial growth factor (VEGF), R&D Systems 293-VE-010 (human) (UniProt P15692)", "assay": "BLI (Octet RED), antibody on protein G sensors, 1:1 global fit"}}}
{"substance": "affinity-purified polyclonal anti-TNF-α antibody (R&D Systems AF-210-NA)", "values": [{"measurement": "Counts", "setting": "[1]", "result": 33000}, {"measurement": "SBR", "setting": "[1]", "result": 2930}, {"measurement": "Counts", "setting": "[2]", "result": 22.1}, {"measurement": "SBR", "setting": "[2]", "result": 1.4}, {"measurement": "Counts", "setting": "[3]", "result": "3.81e+08"}, {"measurement": "SBR", "setting": "[3]", "result": 33}, {"measurement": "SBR", "setting": "[4]", "result": 15.9}, {"measurement": "Counts", "setting": "[5]", "result": "3.2e+08"}, {"measurement": "SBR", "setting": "[5]", "result": 56}, {"measurement": "Counts", "setting": "[6]", "result": 11600}, {"measurement": "SBR", "setting": "[6]", "result": 1030}, {"measurement": "Counts", "setting": "[7]", "result": "2.25e+09"}, {"measurement": "SBR", "setting": "[7]", "result": 198}, {"measurement": "Counts", "setting": "[8]", "result": "4.96e+06"}, {"measurement": "SBR", "setting": "[8]", "result": 21}, {"measurement": "Counts", "setting": "[9]", "result": 2970}, {"measurement": "SBR", "setting": "[9]", "result": 1.4}, {"measurement": "Counts", "setting": "[10]", "result": "1.33e+08"}, {"measurement": "Counts", "setting": "[11]", "result": "8.87e+07"}, {"measurement": "SBR", "setting": "[11]", "result": 7.8}, {"measurement": "Kd", "setting": "[12]", "result": 6.43, "unit": "nM"}, {"measurement": "Counts", "setting": "[13]", "result": 3700}, {"measurement": "SBR", "setting": "[13]", "result": 328}]}
{"substance": "affinity-purified polyclonal anti-VEGF antibody (R&D Systems AF-293-NA)", "values": [{"measurement": "Counts", "setting": "[14]", "result": "8.14e+07"}, {"measurement": "SBR", "setting": "[14]", "result": 1370}, {"measurement": "Counts", "setting": "[15]", "result": 272}, {"measurement": "SBR", "setting": "[15]", "result": 9.1}, {"measurement": "Counts", "setting": "[16]", "result": 71600}, {"measurement": "SBR", "setting": "[16]", "result": 1.1}, {"measurement": "Counts", "setting": "[17]", "result": 29}, {"measurement": "SBR", "setting": "[17]", "result": 3.1}, {"measurement": "Counts", "setting": "[18]", "result": "1.61e+06"}, {"measurement": "Kd", "setting": "[19]", "result": "< 0.005", "unit": "nM"}, {"measurement": "Counts", "setting": "[20]", "result": "3.69e+06"}, {"measurement": "SBR", "setting": "[20]", "result": 11}, {"measurement": "Counts", "setting": "[21]", "result": "6.02e+07"}, {"measurement": "SBR", "setting": "[21]", "result": 1010}, {"measurement": "Counts", "setting": "[22]", "result": 90200}, {"measurement": "SBR", "setting": "[22]", "result": 1.5}, {"measurement": "Counts", "setting": "[23]", "result": 198}, {"measurement": "SBR", "setting": "[23]", "result": 22}, {"measurement": "Counts", "setting": "[24]", "result": 310}, {"measurement": "SBR", "setting": "[24]", "result": 1.2}, {"measurement": "Counts", "setting": "[25]", "result": 363000}, {"measurement": "Counts", "setting": "[26]", "result": 13800}, {"measurement": "SBR", "setting": "[26]", "result": 53}, {"measurement": "Counts", "setting": "[27]", "result": 95500}, {"measurement": "SBR", "setting": "[27]", "result": 1.6}, {"measurement": "Kd", "setting": "[28]", "result": 0.057, "unit": "nM"}]}
